This passage reports stoichiometry N and fold less tight binding than BAK BH3 peptide results from PMC4617978.

The target of test [1] is His6-tagged BAKΔTM (BAK lacking its transmembrane domain, residues 1–186) (human) (UniProt Q16611). Kind of test: cross-linking.
The target in test [2] is BCLXLΔTM (cleaved by thrombin from GST-BCLXLΔTM). The test is described as follows: SPR. On the technique in general: Surface plasmon resonance follows binding to a sensor surface in real time, without labels.
The target in test [3] is MCL1ΔTM (cleaved by thrombin from GST-MCL1ΔTM). Kind of test: SPR.

As a reminder, the stoichiometry N is the number of molecules, sites or subunits per partner or assembly.

“And” between values parts separate entries of the source, which are not always exact repeats. Equal values may be shown once.

Consider “His6-tagged BAKΔTM (BAK lacking its transmembrane domain, residues 1–186) (from UniProt Q16611 1-186) (domain or fragment)”, for which the stoichiometry N in test [1] was 2 and 3.

B1: His6-tagged BAKΔTM (BAK lacking its transmembrane domain, residues 1–186) (domain or fragment)
chain: MASGQGPGPPRQECGEPALPSASEEQVAQDTEEVFRSYVFYRHQQEQEAEGVAAPADPEMVTLPLQPSSTMGQVGRQLAIIGDDINRRYDSEFQTMLQHLQPTAENAYEYFTKIATSLFESGINWGRVVALLGFGYRLALHVYQHGLTGFLGQVTRFVVDFMLHHCIARWIAQRGGWVAALNLGNG
As for B1, the fold less tight binding than BAK BH3 peptide in test [2] and in test [3] was 100 fold throughout.
